In patent publication US20180148504A1:

Legend:
[1] = biological target: endogenous folate receptor alpha in human serum and plasma samples (human) (UniProt P15328); assay: ECL sandwich competition; competitors 24H8.D3 capture / 19D4.B7 detection; serum samples; MORAb-003 100 µg/mL
[2] = biological target: endogenous folate receptor alpha in human serum and plasma samples (human) (UniProt P15328); assay: ECL sandwich capture 19D4.B7 / detection 24H8.F3; serum incubated overnight with 10 µg/mL MORAb-003
[3] = biological target: endogenous folate receptor alpha in human serum and plasma samples (human) (UniProt P15328); assay: ECL sandwich capture 19D4.B7 / detection 2F11.F8; serum incubated overnight with 10 µg/mL MORAb-003
[4] = biological target: endogenous folate receptor alpha in human serum and plasma samples (human) (UniProt P15328); assay: ECL sandwich capture 24H8.F3 / detection 19D4.B7; serum incubated overnight with 10 µg/mL MORAb-003
[5] = biological target: recombinant purified FRα (ECL assay calibrator) (human) (UniProt P15328); assay: ECL sandwich capture 19D2.G9 / detection 6A2.G7; calibrator incubated overnight with 10 µg/mL MORAb-003
recombinant purified FRα (ECL assay calibrator) (human), sequence (P15328 25-234 limits assumed): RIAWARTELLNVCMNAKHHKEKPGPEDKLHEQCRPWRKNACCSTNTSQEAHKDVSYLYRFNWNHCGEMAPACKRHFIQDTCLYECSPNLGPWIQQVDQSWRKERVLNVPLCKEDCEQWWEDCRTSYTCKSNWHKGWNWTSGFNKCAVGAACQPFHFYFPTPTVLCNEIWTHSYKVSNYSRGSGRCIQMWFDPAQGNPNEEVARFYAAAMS

[6] = biological target: recombinant purified FRα (ECL assay calibrator) (human) (UniProt P15328); assay: ECL sandwich capture 24H8.D3 / detection 6A2.G7; calibrator incubated overnight with 10 µg/mL MORAb-003
[7] = biological target: recombinant purified FRα (ECL assay calibrator) (human) (UniProt P15328); assay: ECL sandwich capture 6A2.G7 / detection 2F11.F8; calibrator incubated overnight with 10 µg/mL MORAb-003
[8] = biological target: endogenous folate receptor alpha in human serum and plasma samples (human) (UniProt P15328); assay: ECL sandwich capture 1C6.E12.G8 / detection 19D4.B7; serum incubated overnight with 10 µg/mL MORAb-003
[9] = biological target: recombinant purified FRα (ECL assay calibrator) (human) (UniProt P15328); assay: ECL sandwich capture 6A2.G7 / detection 19D4.B7; calibrator incubated overnight with 10 µg/mL MORAb-003
[10] = biological target: endogenous folate receptor alpha in human serum and plasma samples (human) (UniProt P15328); assay: ECL sandwich capture 1A8.G11.E7 / detection 19D4.B7; serum incubated overnight with 10 µg/mL MORAb-003
[11] = biological target: recombinant purified FRα (ECL assay calibrator) (human) (UniProt P15328); assay: ECL sandwich capture 19D4.B7 / detection 2F11.F8; calibrator incubated overnight with 10 µg/mL MORAb-003
[12] = biological target: recombinant purified FRα (ECL assay calibrator) (human) (UniProt P15328); assay: ECL sandwich capture 2F11.F8 / detection 19D4.B7; calibrator incubated overnight with 10 µg/mL MORAb-003
[13] = biological target: endogenous folate receptor alpha in human serum and plasma samples (human) (UniProt P15328); assay: ECL sandwich capture 24H8.F3 / detection 30G6.G6.G4.E9; serum incubated overnight with 10 µg/mL MORAb-003
[14] = biological target: recombinant purified FRα (ECL assay calibrator) (human) (UniProt P15328); assay: ECL sandwich capture 1A8.G11.E7 / detection 6A2.G7; calibrator incubated overnight with 10 µg/mL MORAb-003
[15] = biological target: recombinant purified FRα (ECL assay calibrator) (human) (UniProt P15328); assay: ECL sandwich capture 1A8.G11.E7 / detection 19D4.B7; calibrator incubated overnight with 10 µg/mL MORAb-003
[16] = biological target: recombinant purified FRα (ECL assay calibrator) (human) (UniProt P15328); assay: ECL sandwich capture 30G6.G6.G4.E9 / detection 6A2.G7; calibrator incubated overnight with 10 µg/mL MORAb-003
[17] = biological target: recombinant purified FRα (ECL assay calibrator) (human) (UniProt P15328); assay: ECL sandwich capture 24H8.D3 / detection 30G6.G6.G4.E9; calibrator incubated overnight with 10 µg/mL MORAb-003
[18] = biological target: recombinant purified FRα (ECL assay calibrator) (human) (UniProt P15328); assay: ECL sandwich capture 26A9.C4 / detection 30G6.G6.G4.E9; calibrator incubated overnight with 10 µg/mL MORAb-003
[19] = biological target: recombinant purified FRα (ECL assay calibrator) (human) (UniProt P15328); assay: ECL sandwich capture 30G6.G6.G4.E9 / detection 19D2.G9; calibrator incubated overnight with 10 µg/mL MORAb-003
[20] = biological target: recombinant purified FRα (ECL assay calibrator) (human) (UniProt P15328); assay: ECL sandwich capture 30G6.G6.G4.E9 / detection 24H8.F3; calibrator incubated overnight with 10 µg/mL MORAb-003
[21] = biological target: recombinant purified FRα (ECL assay calibrator) (human) (UniProt P15328); assay: ECL sandwich capture 30G6.G6.G4.E9 / detection 1C6.E12.G8; calibrator incubated overnight with 10 µg/mL MORAb-003
[22] = biological target: recombinant purified FRα (ECL assay calibrator) (human) (UniProt P15328); assay: ECL sandwich capture 30G6.G6.G4.E9 / detection 1A8.G11.E7; calibrator incubated overnight with 10 µg/mL MORAb-003

endogenous folate receptor alpha in human serum and plasma samples (human), sequence (P15328 25-234 limits assumed, form in doubt): as the sequence (P15328 25-234 limits assumed) above

B1: farletuzumab (MORAb-003) (antibody, part only; not given: Constant regions, V domains shown, not shown: another chain or arm of the molecule)
VH: EVQLVESGGGVVQPGRSLRLSCSASGFTFSGYGLSWVRQAPGKGLEWVAMISSGGSYTYYADSVKGRFAISRDNAKNTLFLQMDSLRPEDTGVYFCARHGDDPAWFAYWGQGTPVTVSS
VL: DIQLTQSPSSLSASVGDRVTITCSVSSSISSNNLHWYQQKPGKAPKPWIYGTSNLASGVPSRFSGSGSGTDYTFTISSLQPEDIATYYCQQWSSYPYMYTFGQGTKVEIK
- percent inhibition (median, serum) [1]: 3%
- Drug suppression of serum [2]: -10.6%
- Drug suppression of serum [3]: 0.82%
- Drug suppression of serum [4]: -13%
- Drug Suppression of Cal Signal at 500 pg/mL [5]: -4%
- Drug Suppression of Cal Signal at 500 pg/mL [6]: -15%
- Drug Suppression of Cal Signal at 500 pg/mL [7]: -4%
- Drug suppression of serum [8]: -52%
- Drug Suppression of Cal Signal at 500 pg/mL [9]: -13%
- Drug suppression of serum [10]: -4.78%
- Drug Suppression of Cal Signal at 500 pg/mL [11]: -4%
- Drug Suppression of Cal Signal at 500 pg/mL [12]: -2%
- Drug suppression of serum [13]: -0.93%
- Drug Suppression of Cal Signal at 500 pg/mL [14]: 16%
- Drug Suppression of Cal Signal at 500 pg/mL [15]: -16%
- Drug Suppression of Cal Signal at 500 pg/mL [16]: -5%
- Drug Suppression of Cal Signal at 500 pg/mL [17]: 0%
- Drug Suppression of Cal Signal at 500 pg/mL [18]: -28%
- Drug Suppression of Cal Signal at 500 pg/mL [19]: -5%
- Drug Suppression of Cal Signal at 500 pg/mL [20]: -8%
- Drug Suppression of Cal Signal at 500 pg/mL [21]: -7%
- Drug Suppression of Cal Signal at 500 pg/mL [22]: 2%
